For one molecule, inhibition of BMP-9 (50 ng/ml)-induced alkaline phosphatase activity in murine VSMCs by ALK1-Fc (250 ng/ml and 1 μg/ml; value results are on record in PMC4288360.

The target in the assay is T1, Recombinant mouse BMP-9 (bone morphogenetic protein 9) (mouse) (UniProt Q9WV56).
T1 sequence: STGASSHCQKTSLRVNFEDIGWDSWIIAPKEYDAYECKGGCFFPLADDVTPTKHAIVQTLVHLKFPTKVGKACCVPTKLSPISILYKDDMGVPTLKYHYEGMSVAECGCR

B1: Activin receptor-like kinase-1 fusion protein (ALK1-Fc) (Fc fusion)
chain: DLAKPSKLVNCTCESPHCKRPFCQGSWCTVVLVREQGRHPQVYRGCGSLNQELCLGRPTEFLNHHCCYRSFCNHNVSLMLEATQTPSEEPEVDAHLP
In the case of B1, the inhibition of BMP-9 (50 ng/ml)-induced alkaline phosphatase activity in murine VSMCs by ALK1-Fc (250 ng/ml and 1 μg/ml; value at 1 μg/ml), 4 days; blocks BMP-9 acting on ALK1 of the cells came to 33%.
